In article PMC3169474 one finds binding signal data, which are given here for two sequences.

In this series the test system is TBP2. In words: pull-down. To be noted: negative control, biotin-dUTP/dATP fill-in, 20 mM Tris pH 8.0, 1 mM EDTA, 5 mM DTT, 5 mM MgCl2, 100 mM KCl, 0.125% NP40, protease inhibitors, overnight at 4 C, washes 100-200 mM KCl (up to 400 mM tested).

Turning to “GATCCCGGAGTTAA / GATCTTAACTCCGG [methylated concatamerized GATC-CCGG-AGTTAA probe (SssI+)]”, the binding signal (very low affinity, 5-methylcytosine at CpG (SssI), both strands) is < 1 % recovered.
“GATCCCGGAGTTAA / GATCTTAACTCCGG [unmethylated concatamerized GATC-CCGG-AGTTAA probe (SssI-)]” yielded a binding signal (residual affinity) of 4 % recovered.
